From the supplement of paper PMC9112550, “Optimization of the antimicrobial peptide Bac7 by deep mutational scanning” (BMC Biology, 2022)

tested on: Escherichia coli TOP10; experiment: shrunken log2 fold change of peptide-encoding DNA abundance (4.5 h post-induction vs induction); higher = less antimicrobial activity (less host growth inhibition); conditions: time post-induction: 4.5 h; library: site-saturation at positions 5, 18, 19, 20
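Note: peptides expressed intracellularly from a pBAD plasmid library in pooled LB shake-flask culture, induced with 0.3% L-arabinose, DNA abundance read by NGS, three biological replicates, DESeq2 with apeglm shrinkage.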

Sequence | shrunken log2 fold change
RRIRCRPPRLPRPRPRPYRVPRP | 1.99
RRIRTRPPRLPRPRPRPFSNPRP | -0.405
RRIRDRPPRLPRPRPRPFWDPRP | 0.148
RRIRPRPPRLPRPRPRPYMIPRP | -0.398
RRIRARPPRLPRPRPRPVSIPRP | 0.119
RRIRSRPPRLPRPRPRPFCMPRP | -0.324
RRIRFRPPRLPRPRPRPSCYPRP | -0.839
RRIRQRPPRLPRPRPRPGWNPRP | -0.0526
RRIRMRPPRLPRPRPRPVVKPRP | 0.189
RRIRDRPPRLPRPRPRPNVEPRP | 0.119
RRIRCRPPRLPRPRPRPNLHPRP | -0.619
RRIRHRPPRLPRPRPRPNTRPRP | -0.28
RRIRPRPPRLPRPRPRPQIFPRP | -0.137
RRIRGRPPRLPRPRPRPQMKPRP | 0.29
RRIRERPPRLPRPRPRPQGQPRP | -0.0238
RRIRPRPPRLPRPRPRPHCSPRP | -0.0583
RRIRDRPPRLPRPRPRPPLDPRP | 0.652
RRIRTRPPRLPRPRPRPMNNPRP | -0.582
RRIRARPPRLPRPRPRPFPFPRP | -0.112
RRIRGRPPRLPRPRPRPWEIPRP | 0.361
RRIRGRPPRLPRPRPRPTNPPRP | 0.367
RRIRNRPPRLPRPRPRPAECPRP | 0.0508

Sequence | shrunken log2 fold change
RRIRHRPPRLPRPRPRPNAHPRP | -0.0872
RRIRKRPPRLPRPRPRPHAGPRP | 0.143
RRIRSRPPRLPRPRPRPMTSPRP | -0.0553
RRIRCRPPRLPRPRPRPYQTPRP | -0.0384
RRIRWRPPRLPRPRPRPKFHPRP | -0.249
RRIRERPPRLPRPRPRPETPPRP | 0.784
RRIRCRPPRLPRPRPRPVVLPRP | -0.0778
RRIRCRPPRLPRPRPRPHSIPRP | -0.101
RRIRFRPPRLPRPRPRPQCEPRP | 0.0491
RRIRRRPPRLPRPRPRPSHKPRP | -0.0351
RRIRCRPPRLPRPRPRPISEPRP | -0.0601
RRIRSRPPRLPRPRPRPQERPRP | -0.0153
RRIRWRPPRLPRPRPRPQQWPRP | 0.333
RRIRNRPPRLPRPRPRPWTAPRP | -0.0401
RRIRNRPPRLPRPRPRPLVWPRP | 0.124
RRIRKRPPRLPRPRPRPRVSPRP | 0.198
RRIRHRPPRLPRPRPRPALEPRP | -0.069
RRIRWRPPRLPRPRPRPEPEPRP | 0.838
RRIRCRPPRLPRPRPRPRKAPRP | 0.578
RRIRFRPPRLPRPRPRPPQPPRP | 0.795
RRIRVRPPRLPRPRPRPICSPRP | -0.154
RRIRTRPPRLPRPRPRPKHMPRP | -0.081

Sequence | shrunken log2 fold change
RRIRPRPPRLPRPRPRPLRVPRP | 0.615
RRIRCRPPRLPRPRPRPYMKPRP | -0.582
RRIRYRPPRLPRPRPRPLDAPRP | -0.0975
RRIRCRPPRLPRPRPRPFRMPRP | -0.113
RRIRWRPPRLPRPRPRPCVHPRP | 0.0249
RRIRARPPRLPRPRPRPQAHPRP | 0.324
RRIRIRPPRLPRPRPRPHLAPRP | 0.0435
RRIRNRPPRLPRPRPRPPEYPRP | -0.932
RRIRMRPPRLPRPRPRPIFEPRP | 0.166
RRIRQRPPRLPRPRPRPRGNPRP | 0.106
RRIRWRPPRLPRPRPRPFEVPRP | 0.0389
RRIRHRPPRLPRPRPRPTYLPRP | -0.133
RRIRQRPPRLPRPRPRPNWVPRP | 0.00521
RRIRTRPPRLPRPRPRPCNMPRP | -0.154
RRIRCRPPRLPRPRPRPAITPRP | -0.372
RRIRTRPPRLPRPRPRPHKQPRP | -0.148
RRIRTRPPRLPRPRPRPLHYPRP | -0.592
RRIRNRPPRLPRPRPRPKLMPRP | -0.109
RRIRQRPPRLPRPRPRPGHVPRP | 0.0119
RRIRLRPPRLPRPRPRPSCEPRP | -0.0674
RRIRERPPRLPRPRPRPMQIPRP | -0.0552
RRIRYRPPRLPRPRPRPLCRPRP | -0.863

Sequence | shrunken log2 fold change
RRIRMRPPRLPRPRPRPFCWPRP | 0.421
RRIRDRPPRLPRPRPRPCVDPRP | 0.0635
RRIRPRPPRLPRPRPRPVVFPRP | 0.0396
RRIRRRPPRLPRPRPRPSVPPRP | 0.063
RRIRHRPPRLPRPRPRPMLLPRP | 0.0408
RRIRNRPPRLPRPRPRPEFIPRP | -0.304
RRIRQRPPRLPRPRPRPQNDPRP | 0.119
RRIRNRPPRLPRPRPRPNDTPRP | -0.236
RRIRIRPPRLPRPRPRPWSEPRP | -0.0763
RRIRQRPPRLPRPRPRPEYVPRP | -0.0886
RRIRGRPPRLPRPRPRPKVLPRP | 0.177
RRIRLRPPRLPRPRPRPNWFPRP | -0.00982
RRIRPRPPRLPRPRPRPALGPRP | 0.964
RRIRARPPRLPRPRPRPYVIPRP | -0.434
RRIRVRPPRLPRPRPRPKNGPRP | -0.129
RRIRERPPRLPRPRPRPQNLPRP | -0.375
RRIRGRPPRLPRPRPRPEVKPRP | 0.0386
RRIRQRPPRLPRPRPRPTFMPRP | -0.552
RRIRNRPPRLPRPRPRPMHQPRP | -0.19
RRIRDRPPRLPRPRPRPVVYPRP | -0.349
RRIRGRPPRLPRPRPRPIWLPRP | 0.159
RRIRARPPRLPRPRPRPAFLPRP | 0.486

Sequence | shrunken log2 fold change
RRIRFRPPRLPRPRPRPHIFPRP | -0.021
RRIRMRPPRLPRPRPRPAWEPRP | 0.655
RRIRWRPPRLPRPRPRPVHQPRP | 0.194
RRIRNRPPRLPRPRPRPRKIPRP | 0.39
RRIRTRPPRLPRPRPRPIELPRP | -0.0636
RRIRYRPPRLPRPRPRPKLDPRP | -0.351
RRIRGRPPRLPRPRPRPLGFPRP | 0.755
RRIRNRPPRLPRPRPRPPPWPRP | 0.591
RRIRRRPPRLPRPRPRPPDHPRP | 0.762
RRIRSRPPRLPRPRPRPQDAPRP | 0.0464
RRIRNRPPRLPRPRPRPADKPRP | 0.0545
RRIRERPPRLPRPRPRPYYYPRP | -0.732
RRIRHRPPRLPRPRPRPHREPRP | 0.00911
RRIRHRPPRLPRPRPRPHANPRP | -0.124
RRIRIRPPRLPRPRPRPSNAPRP | -0.0615
RRIRSRPPRLPRPRPRPTDAPRP | 0.236
RRIRDRPPRLPRPRPRPDWFPRP | -0.0209
RRIRQRPPRLPRPRPRPWRMPRP | -0.421
RRIRIRPPRLPRPRPRPWTLPRP | -0.0808
RRIRNRPPRLPRPRPRPNWIPRP | -0.0612
RRIRARPPRLPRPRPRPQNYPRP | -0.1
